Patent US20090257987A1, “Method of generating dopamine-secreting cells” (Ramot At Tel Aviv University Ltd., priority 2008, published 2009)

Key:
human MSCs [1] = experiment: Intracellular FACS analysis of TH expression; assay type: cell-based; details: none of the untreated cells
Protocol: Induction of differentiation: The differentiation protocol was composed of 2 steps. In step 1, cells were transferred to serum-free medium (DMEM) supplemented with 2 mM glutamine, 100 μg/ml streptomycin, 100 units/ml penicillin, 12.5 units/ml nystatin (Biological Industries), N2 supplement (Invitrogen, New Haven, Conn.) and 20 ng/ml fibroblast growth factor 2 and epidermal growth factor (both from R&D Systems, Minneapolis, Minn.) for 48-72 hours. In step 2, the medium was changed to Basic induction medium containing Neurobasal, B27 (both from Invitrogen), in addition to 1 mM dibutyryl cyclic AMP (dbcAMP), 3-isobutyl-1-methyl-xanthine (IBMX), and 200 μM ascorbic acid (all from Sigma, St Louis, Mo.). […]
Intracellular fluorescence-activated cell sorter (FACS) analysis: Cells were harvested from the tissue culture flasks, centrifuged, and resuspended in phosphate-buffered saline (PBS). […] The results were analyzed with CellQuest software. […]

human MSCs [2] = experiment: Bright-light microscopy of cell morphology after induction; assay type: cell-based; details: from MSC fibroblast shape
Protocol: Induction of differentiation: The differentiation protocol was composed of 2 steps. In step 1, cells were transferred to serum-free medium (DMEM) supplemented with 2 mM glutamine, 100 μg/ml streptomycin, 100 units/ml penicillin, 12.5 units/ml nystatin (Biological Industries), N2 supplement (Invitrogen, New Haven, Conn.) and 20 ng/ml fibroblast growth factor 2 and epidermal growth factor (both from R&D Systems, Minneapolis, Minn.) for 48-72 hours. In step 2, the medium was changed to Basic induction medium containing Neurobasal, B27 (both from Invitrogen), in addition to 1 mM dibutyryl cyclic AMP (dbcAMP), 3-isobutyl-1-methyl-xanthine (IBMX), and 200 μM ascorbic acid (all from Sigma, St Louis, Mo.). The following factors were added to the Basic induction medium in different combinations: brain-derived neurotrophic factor (BDNF; 50 ng/ml), glial-derived neurotrophic factor (GDNF;10 ng/ml), neurturin (100 ng/ml), neurotrophin 3 (NT3; 50 ng/ml), and fibroblast growth factor 8 (FGF8; 100 ng/ml (all from Cytolab, Rehovot, Israel); transforming growth factor β3 (TGFβ3; 2 ng/ml), sonic hedgehog (Shh; 500 ng/ml, both from R&D); estrogen (0.1 μM, Sigma); and all-trans-retinoic acid (RA; 0.1 μM, Sigma).

B1: brain-derived neurotrophic factor (protein, UniProt P23560 19-247, looked up)
Neurotrophic factor BDNF …: APMKEANIRGQGGLAYPGVRTHGTLESVNGPKAGSRGLTSLADTFEHVIEELLDEDQKVRPNEENNKDADLYTSRVMLSSQVPLEPPLLFLLEEYKNYLDAANMSMRVRRHSDPARRGELSVCDSISEWVTAADKKTAVDMSGGTVTVLEKVPVSKGQLKQYFYETKCNPMGYTKEGCRGIDKRHWNSQCRTTQSYVRALTMDSKKRIGWRFIRIDTSCVCTLTIKRGR
notes: brain-derived neurotrophic factor (50 ng/ml) added to the Basic induction medium
- induced cells expressing the TH protein at a detectable level (human MSCs [1]): More than 30%
- cell morphology (human MSCs [2]): neuron-like appearance
